# B1: VEGF-C: Vascular Endothelial Growth Factor C, the major pro-lymphangiogenesis factor; purchased from R&D Systems (protein, UniProt P49767 112-227, looked up)
# Vascular endothelial growth …: AHYNTEILKSIDNEWRKTQCMPREVCIDVGKEFGVATNTFFKPPCVSVYRCGGCCNSEGLQCMNTSTSYLSKTLFEITVPLSQGPKPVTISFANHTSCRCMSKLDVYRQVHSIIRR
# What was measured:
# chemokine receptor CXCR4 = assay: Immunoblotting of CXCR4 in lymphatic endothelial cells (incl. HIF-1α RNA interference); type: cell-based; conditions: mouse lymphatic endothelial cells, 100 ng/mL VEGF-C, 6, 12 and 24 hours
# Description: Mouse primary lymphatic endothelial cells at passage 2 or 3 in good condition were selected, and starved overnight by replacing the culture medium with a fresh medium free of serum and growth factors. Then the medium was replaced with a medium containing 100 ng/mL of VEGF-C. The cells were incubated for 6, 12 and 24 hours, respectively, and then trypsinized and collected by centrifugation for detecting the expression level of chemokine receptor CXCR4 in the cells by immunoblotting.
# The samples were subjected to SDS-PAGE (the concentration of separation gel was 15%). Protein bands were transferred to polyvinylidene difluoride (PVDF) membrane (purchased from Millipore) at 100 mA for 3 hours using an electroblotting device in ice bath. TBST buffer (20 mM Tris, pH7.4, 150 mM NaCl, 0.1% Tween-20) was formulated for preparing blocking solution, primary antibody solution and secondary antibody solution. The PVDF membrane was further incubated in blocking solution containing 5% skim milk for 1 hour at room temperature with gentle shaking. The membrane was then washed with TBST for 5 times, 5 minutes each. […]
# The siRNA for interfering with the chemical synthesis of HIF-1α was purchased from Santa Cruz Biotechnology, and the negative control siRNA was purchased from GenePharma, Shanghai. […] HIF-1α knock-down efficiency was detected by immunoblotting. […]
# [1] = tested on: mouse lymphatic endothelial cells; assay: Cell chemotaxis assay (Transwell); type: cell-based; conditions: agent in outer chamber (CXCL12 1, 20, 100 ng/mL; VEGF-C 100 ng/mL), 6 hours
# Description: The migration ability of mouse lymphatic endothelial cells was assessed using 8-μm-pore Transwell bucket (filter membrane) (purchased from Costar). The transwell bucket was placed into a 24-well plate. Mouse primary lymphatic endothelial cells (mLECs) at passage 2 or 3 in good conditions were selected, and divided into five groups, four parallel samples for each group and approximately 2×10^4 cells for each parallel sample. The cells were digested with trypsin, resuspended in 200 μL of fresh serum-free endothelial cell culture medium (ECM, purchased from Sciencell), and then seeded into the inner chambers of the Transwell bucket. To each outer chamber was added 800 μL of serum-free endothelial cell culture medium mixed with 1 ng/mL, 20 ng/mL, 100 ng/mL of chemokine CXCL12 (purchased from R&D Systems), 100 ng/mL of VEGF-C (purchased from R&D Systems) and PBS control, respectively. The culture plate was placed into an incubator and incubated under 5% CO2 at 37° C. for 6 hours.
# After taking out the culture plate, the Transwell bucket was fixed in 4% paraformaldehyde solution for 15 minutes. The Transwell bucket was rinsed twice in PBS, stained with 0.1% crystal violet solution for 30 minutes, and then washed with PBS to remove the non-specifically bound crystal violet. The cells inside Transwell membrane were wiped off gently with medical cotton swabs. Note that the cells on the edge of the membrane should also be wiped off to avoid affecting cell counting. The Transwell bucket was placed under a microscope (Olympus IX71 microscope), and the cells migrated from the outer membrane were observed by microscopy. 8 fields per group were photographed randomly to count the cells.
# The migration ability of mouse lymphatic endothelial cells was assessed using 8-μm-pore Transwell bucket (purchased from Costar). The bucket was placed into a 24-well plate. Mouse primary lymphatic endothelial cells (mLECs) at passage 2 or 3 in good conditions were selected, and divided into six groups, four parallel samples for each group, and approximately 2×10^4 cells for each parallel sample. The cells were digested with trypsin and resuspended in 200 μL, of fresh serum-free endothelial cell culture medium (ECM, purchased from Sciencell). The cells were pretreated for 30 minutes with dimethyl sulfoxide (DMSO) as a control, protein kinase B (Akt) antagonist LY294002 (10 μM, purchased from Sigma-Aldrich) and extracellular signal-regulated kinase (Erk) antagonist U0126 (10 μM, purchased from Sigma-Aldrich), respectively, and then seeded into the inner chambers of the Transwell bucket. […] The cells were stained and the number of the migrated cells was counted.
# The migration ability of mouse lymphatic endothelial cells was detected by using 8-μm-pore Transwell bucket (purchased from Costar). […]
molecule,measurement,setting,value
B1,expression level of CXCR4,chemokine receptor CXCR4,could up-regulate the expression of CXCR4 and HIF-1α
same,migration of mouse lymphatic endothelial cells,[1],could promote the migration of mouse lymphatic endothelial cells

# Reference: patent publication US20180094051A1, “METHOD FOR INHIBITING LYMPHANGIOGENESIS BY ADMINISTRATION OF AN INHIBITOR OF THE CXCL12 PATHWAY” (Tsinghua University, priority 2012, published 2018)
